Assay [1] has as its target T1, Human CD137 shuffle 5 (amino acids 48-88 of African elephant CD137) (human with African elephant residues …, UniProt Q07011 24-255).
T1 construct: also called shuffle construct 5; shuffle 5/elephant
T1 chain: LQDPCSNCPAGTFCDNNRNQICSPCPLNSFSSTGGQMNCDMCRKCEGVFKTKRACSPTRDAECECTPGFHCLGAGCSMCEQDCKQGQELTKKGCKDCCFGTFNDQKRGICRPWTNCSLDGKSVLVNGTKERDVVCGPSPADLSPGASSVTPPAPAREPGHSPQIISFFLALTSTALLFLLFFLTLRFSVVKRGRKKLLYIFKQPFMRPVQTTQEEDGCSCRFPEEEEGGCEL
As to the kind of experiment: flow cytometry on transfected HEK293T-17 cells. Background: In flow cytometry, cells or beads pass a laser one at a time.

The target in assay [2] is T2, Wild boar CD137 (wild boar (Sus scrofa)).
T2 construct: Amino acids 1-23 are stated to be a predicted signal peptide; Expressed on HEK293T-17 cells; also called Sus scrofa CD137
T2 chain: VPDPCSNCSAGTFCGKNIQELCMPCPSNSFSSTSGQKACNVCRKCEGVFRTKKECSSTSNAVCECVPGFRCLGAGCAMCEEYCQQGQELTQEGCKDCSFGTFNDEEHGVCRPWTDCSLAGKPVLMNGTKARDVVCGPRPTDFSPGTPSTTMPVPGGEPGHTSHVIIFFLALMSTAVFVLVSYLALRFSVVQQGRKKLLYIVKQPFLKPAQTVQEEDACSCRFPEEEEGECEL
As to the kind of experiment: flow cytometry on transfected HEK293T-17 cells.

Assay [3] concerns the target T3, African elephant CD137 (African elephant (Loxodonta africana)).
T3 construct: Amino acids 1-23 are stated to be a predicted signal peptide; Expressed on HEK293T-17 cells; also called Loxodonta africana CD137
T3 chain: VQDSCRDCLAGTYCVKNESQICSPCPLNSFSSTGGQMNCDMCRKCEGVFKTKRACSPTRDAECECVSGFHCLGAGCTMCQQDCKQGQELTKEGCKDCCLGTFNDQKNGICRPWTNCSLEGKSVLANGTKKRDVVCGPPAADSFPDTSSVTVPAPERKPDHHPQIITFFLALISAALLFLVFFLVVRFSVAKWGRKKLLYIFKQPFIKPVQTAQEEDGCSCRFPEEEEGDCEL
Description: flow cytometry on transfected HEK293T-17 cells.

In assay [4] the target is T4, Human CD137 (human, UniProt Q07011 24-255).
T4 construct: also called hCD137 wt; 4-1BB
Description: flow cytometry on transfected HEK293T-17 cells, 1 µg/mL antibody.

B1: CD137-009 (antibody, human IgG1, kappa, V domains shown)
VH: QSLEESGGRLVTPGTPLTLTCTVSGFSLNDYWMSWVRQAPGKGLEWIGYIDVGGSLYYASWAKGRFTISRTSTTVDLKMTSLTTEDTATYFCARGGLTYGFDLWGPGTLVTVSS
VL: DIVMTQTPASVSEPVGGTVTINCQASEDISSYLAWYQQKPGQRPKRLIYGASDLASGVPSRFSASGSGTEYALTISDLESADAATYYCHYYATISGLGVAFGGGTEVVVKR
notes: Rabbit variable regions on human IgG1; also called chimeric CD137 antibody; rabbit anti-CD137-009
Take B1: the binding result in assay [1] is reported as “no binding (tested: 1 µg/mL)”; in assay [2], “no binding (tested: 1 µg/mL)”; in assay [3], “no binding (tested: 1 µg/mL)”; in assay [4] it was “binds”.

For the origin of these results see US20200165349A1 (Genmab, published 2020).
